From patent EP4659811A1 (Université de Strasbourg, dated 2025) come the findings set out here.

To fix the notation:
B1: antibody D11P7 (antibody, V domains shown)
VH: EVQLVESGGGLVQPGGSLRLSCAASGFTFRSYTMDWVRQAPGKGLEWVSCISGSSNHKYYADSVRGRFTISRDNAKNSLFLQMNSLRAEDSAVYYCAREDDILTPLYGMDVWGPGTTVTVSS
VL: QSALTQPASVSGSPGQSITISCTGTSSDVGAYNYVSWYRLRPGKDPHLIIYDVSHRPAGVSNRFSGSKSGNTASLTISGLQAEDEDEYYCCSYAHRGTPLFGGGTKLTVL
B2: antibody C11P7 (antibody, V domains shown)
VH: EVQLVESGGGLVQPGGSLKLSCAASGFSLSNSEVHWVRQASGKGLEWIGRVRSRANRHATGYTESVNGRFTVSRDDSKNTASLQLESLKIEDTAVYYCTGVRGVISRYFAMDVWGQGTTVTVSS
VL: B1 VL
B3: antibody B10P1 (antibody, V domains shown)
VH: EVQLSESGGGLVQPGGSLRLSCAASGFTFSSYAMSWVRQAPGKGLEWVSSLTGSGGSTYYRDSVKGRFTIFRDNSKKTLYMQMNSLRAEDTAVYYCAKEGAYSYDFWYFDLWGRGTLVTVSS
VL: EIVLTQSPGTLSLSPGERATLSCRASQTVSGNYLAWYQQKPGQSPSLLIYGASSRATGIPDRFTGSGSGTDFTLTISRLEPADFAVYYCQQYGRPLTFGGGTKVDIK
B4: antibody G9P2 (antibody, V domains shown)
VH: B3 VH with S5L
VL: B3 VL with I49T, D105E
B5: antibody F3P7 (antibody, V domains shown)
VH: QVQLVQSGAEVKKPGASVKVSCKVSGYTFTSYSMHWLRQAPGQRLEWMGWINAGNGDTKYSQKFQGRITISRDTSARTTYMELSSLRSEDTAVFYCARSNSPTVTYNYYYYAMDVWGQGTTVTVSS
VL: EIVLTQSPGTLSLSPGERATLSCRASQSVRSSYLAWYQQQAGQAPRLLIYDASSRATGIPDRFSGSGSGTDFSLTISRLDPEDFAVYYCQQYGNSPLTFGGGTKVEIK
B6: antibody F3P6 (antibody, V domains shown)
VH: QVQLVQSGAEVKKPGASVKVSCKASGYTFTTHIIHWVRQAPGQRLEWMGWINAGNGNTHYSEKFQGRVTLTRDTSASTAYMELSSLRSEDTAIYYCAREDQWLGRSPLEYWGQGTLVTVSS
VL: EIVLTQSPGTLSLSPGERATLSCRASQSVSSSYLAWYQHKPGQAPRLLIYGASSRATGIPDRFSGSGSGTDFTLTISRLEPEDFAVYYCQQYGNSYPWTFGQGTKVEIK
B7: antibody G5P6 (antibody, V domains shown)
VH: B6 VH with H59K
VL: B6 VL with I76V
B8: antibody E4P2 (antibody, V domains shown)
VH: QVQLQESGPGLVKPSQTLSLTCTVSGGSISSGGYYWSWIRQHPGKGLEWIGYMYYSGSTNYNPSLKSRVTISVDTSKNQFSLKLTSVTAADTAVYYCARDRRDYGDYYYFGMDVWGQGTTVTVSS
VL: QSVLTQPPSVSGAPGQRVTISCTGSSSNIGAGYDVHWYQQLPGTAPKLLIYANSNRPSGVPDRFSGSKSGTSASLAITGLQAEDEANYYCQSYDSSLSVYVVFGGGTKLTVL
B9: antibody G7P7 (antibody, V domains shown)
VH: QVQLQESGPGLVRPSQTLSLTCTVSGGSMTSGSYYWSWIRQPAEKGLEWIGRIYTSGRTDYNPSLKSRVAMSIDTSKNQFSLRLTSVTAADTAVYYCARWGDSSAYYYVGDPWGRGTPVTVSS
VL: DIQMTQSPSSLSASIGDRVTITCRASQNINTYLYWYQQKPGKAPQLLIYAASNLQTGAPSRFSGSGSGTDFTLTISSLQPADFATYYCQQSFSLPHTFGQGTKLEIK
B10: antibody G8P6 (antibody, V domains shown)
VH: B9 VH with P118T
VL: B9 VL
B11: antibody C6P7 (antibody, V domains shown)
VH: B9 VH
VL: B9 VL with L104V
B12: antibody E6P5 (antibody, V domains shown)
VH: EVQLVESGGGLVQPGRSLRLSCSASGFTFDDHAMHWVRQAPGKGLEWVAGINWNSASIVYADSVKGRFTISRDNVKNSLYLQMNSLRADDTALYYCAKDFGLWFGESRGIDAWGRGTTVTVSS
VL: DIVMTQSPLSLPVTPGEPASISCRPSQSLLHSNGYNYLNWYLQKPGRSPQLLIYLGSNRASGVPDRFSGSGSGTDFTLKISRVEAEDVGIYYCMQALQTPITFGQGTRLEIK
B13: antibody D3P7 (antibody, V domains shown)
VH: QVQLVQSGSELKKPGASVRVSCKASAYTFTNSAINWVRQAPGQGLEWTGWINTNTGNPAYAQGFRGRFVFSLDTSVSEAYLQITNLKAEDTATYYCAVPYNFGGDHNSFHFFGMDVWGQGTTVTVSS
VL: QSALTQPASVSGSPGQSITISCTGSSSDVGTYNFVSWYQQQPAKAPKVMIYEGTKRPSGISDRFSGSKSGNTASLTISGLQAEDEADYYCSSYAGGNAFVFGTGTRVSVL
B14: antibody B7P6 (antibody, V domains shown)
VH: EVQLVQSGAELKKPGESLKISCKGSGFTFTNYWIAWVRQMPGKGLEWMGIIYPDDSDARYSPSFEGQVTISVDKSISTAYLQWSSLKASDTAIYYCARGGFCSGSVCYNPAWFDLWGQGTLVTVSS
VL: DIQMTQSPSSLSASVGDRVTITCRASQTINTYLNWYLQKPGKAPKLLISDASSLETGVPSRFSGSGSGTDFTLTISSLQPDDFATYYCQQSYSTPLTFGGGTKVEIK
B15: antibody D7P6 (antibody, V domains shown)
VH: EVQLLESGGGLVQPGGSLRLSCAASGFPFSSYAMSWVRQAPGKGLEWVSGITGSASGTYYADSVKGRFTISRDNSKNTLYLRMNSLRAEDTAVYYCAKEGAYSYDYWYFDLWGRGTLVTVSS
VL: EIVLTQSPGTLSLSPGERATLSCRASQSVSGSYLAWYQQKPGQTPRLLIYGASSRATGIPDRFSGSGSGTDFTLTINRLDPEDFGVYYCQQYGSLVTFGGGSKVEIK
B16: antibody F4P5 (antibody, V domains shown)
VH: EVQLVESGGGVVQPGRSLRLSCAASGFTFSNFGMHWVRQPPGKGLEWVAVISYDGSDKFYADSVKGRFTISRDNFKNTLYVQMNSLRAEDTAVYYCAKDRVRTKYYYDHSGPFDYWGRGTLVTVSS
VL: SYELTQPPSVSVAPGQTARIACGGNNIGSKSVHWYQQRPGQAPVLVVYDDDDRPSGIPERFSGSNSGNTATLTISRVEAGDEADYFCQVWMTNSDRPVFGGGTKLTVL

Changes are numbered by the printed parent chain.

In the first assay the target is VP1 capsid protein on BKV pseudovirions of genotype IVc2 (A-66H; AB369093) (BK virus genotype IVc2 (A-66H)). Nature of the assay: cell-based or functional assay.
As to B1, the “Neutralization PSV IC50” value is more than 50 µg/mL.

As to B2, the “Neutralization PSV IC50” value is more than 50 µg/mL.

For B3, the “Neutralization PSV IC50” value was more than 50 µg/mL.

Take B4: the “Neutralization PSV IC50” value is more than 50 µg/mL.

For the molecule B5, the “Neutralization PSV IC50” value was 0.614 µg/mL.

For B6, the “Neutralization PSV IC50” value worked out at 0.262 µg/mL.

Consider B7, for which the “Neutralization PSV IC50” value amounted to 0.0889 µg/mL.

Regarding B8, the “Neutralization PSV IC50” value is more than 50 µg/mL.

In the case of B9, the “Neutralization PSV IC50” value amounted to 0.0036 µg/mL.

As to B10, the “Neutralization PSV IC50” value was 0.0582 µg/mL.

With B11, the “Neutralization PSV IC50” value is 0.0053 µg/mL.

As to B12, the “Neutralization PSV IC50” value is 1.19 µg/mL.

Consider B13, for which the “Neutralization PSV IC50” value is more than 50 µg/mL.

With B14, the “Neutralization PSV IC50” value worked out at 0.121 µg/mL.

As to B15, the “Neutralization PSV IC50” value was more than 50 µg/mL.

As for B16, the “Neutralization PSV IC50” value was 15.9 µg/mL.

For a further assay, the target named is VP1 capsid protein on BKV pseudovirions of genotype II (GBR-12; AB263920) (BK virus genotype II (GBR-12)). Nature of the assay: cell-based or functional assay.
With B1, the “Neutralization PSV IC50” value is 0.0901 µg/mL.

Consider B2, for which the “Neutralization PSV IC50” value was more than 50 µg/mL.

B3: the “Neutralization PSV IC50” value was found to be 0.107 µg/mL.

Consider B4, for which the “Neutralization PSV IC50” value stood at 0.0336 µg/mL.

Consider B5, for which the “Neutralization PSV IC50” value was 0.0457 µg/mL.

In the case of B6, the “Neutralization PSV IC50” value was 0.0062 µg/mL.

In the case of B7, the “Neutralization PSV IC50” value is 0.0082 µg/mL.

For B8, the “Neutralization PSV IC50” value worked out at 0.979 µg/mL.

Consider B9, for which the “Neutralization PSV IC50” value came out at 0.0007 µg/mL.

For the molecule B10, the “Neutralization PSV IC50” value was determined as 0.0058 µg/mL.

Turning to B11, the “Neutralization PSV IC50” value is 0.0002 µg/mL.

As to B12, the “Neutralization PSV IC50” value amounted to 0.232 µg/mL.

Turning to B13, the “Neutralization PSV IC50” value was more than 50 µg/mL.

B14: the “Neutralization PSV IC50” value amounted to 0.0044 µg/mL.

For B15, the “Neutralization PSV IC50” value was 0.0103 µg/mL.

Consider B16, for which the “Neutralization PSV IC50” value is 0.471 µg/mL.

For a further assay, the target named is VP1 capsid protein on BKV pseudovirions of genotype Ia (BK-D; JF894228) (BK virus genotype Ia (BK-D)). Nature of the assay: cell-based or functional assay.
For the molecule B1, the “Neutralization PSV IC50” value worked out at 0.275 µg/mL.

Consider B2, for which the “Neutralization PSV IC50” value is more than 50 µg/mL.

With B3, the “Neutralization PSV IC50” value is 1.27 µg/mL.

As for B4, the “Neutralization PSV IC50” value was 0.683 µg/mL.

On to B5, for which the “Neutralization PSV IC50” value was more than 50 µg/mL.

Regarding B6, the “Neutralization PSV IC50” value was 0.363 µg/mL.

On to B7, for which the “Neutralization PSV IC50” value turned out to be 0.299 µg/mL.

For B8, the “Neutralization PSV IC50” value stood at 0.0399 µg/mL.

With B9, the “Neutralization PSV IC50” value came out at 12.5 µg/mL.

Regarding B10, the “Neutralization PSV IC50” value was 6.44 µg/mL.

Regarding B11, the “Neutralization PSV IC50” value was 0.104 µg/mL.

Take B12: the “Neutralization PSV IC50” value amounted to 0.0008 µg/mL.

Turning to B13, the “Neutralization PSV IC50” value is more than 50 µg/mL.

With B14, the “Neutralization PSV IC50” value came to 0.0479 µg/mL.

Turning to B15, the “Neutralization PSV IC50” value came to 0.096 µg/mL.

On to B16, for which the “Neutralization PSV IC50” value came out at 0.0008 µg/mL.

A further assay concerns the target T1, VP1 pentamer of BKV genotype IV (recombinant) (BK virus genotype IV, UniProt P14996 30-300).
T1 construct: also called GIV; VP1 BKV subtype IV; not shown: N-terminal His-tag of pESPRIT002; C-terminal biotin acceptor peptide (BAP) of pESPRIT002
The assay can be described thus: ELISA, coated VP1 pentamer. A general note: ELISA stands for enzyme-linked immunosorbent assay.
For B1, the binding result is reported as “no binding (tested: starting at 50 µg/mL)”.

For the molecule B2, the EC50 (in general, the midpoint of the concentration-response curve) is 4 µg/mL.

Take B3: the EC50 amounted to 15 µg/mL.

Consider B4, for which the EC50 stood at 10 µg/mL.

For the molecule B5, the EC50 is 1.8 µg/mL.

For B6, the EC50 was 1.25 µg/mL.

Take B7: the EC50 amounted to 0.7 µg/mL.

As to B8, the half-maximal effective concentration (EC50) was determined as 0.18 µg/mL.

On to B9, for which the half-maximal effective concentration (EC50) stood at 0.04 µg/mL.

With B10, the EC50 was 0.06 µg/mL.

Regarding B11, the EC50 was 0.08 µg/mL.

For the molecule B12, the EC50 worked out at 3 µg/mL.

Take B13: the EC50 came to 0.3 µg/mL.

For B14, the EC50 was found to be 0.1 µg/mL.

Consider B15, for which the EC50 was 70 µg/mL.

On to B16, for which the EC50 worked out at 12 µg/mL.

For the next assay, the target named is T2, VP1 pentamer of BKV genotype II (recombinant) (BK virus genotype II, UniProt P14996 30-300).
T2 construct: also called GII; VP1 geno II pentamer; not shown: N-terminal His-tag of pESPRIT002; C-terminal biotin acceptor peptide (BAP) of pESPRIT002
The assay can be described thus: ELISA, coated VP1 pentamer.
In the case of B1, the binding result is on record as “no binding (tested: starting at 50 µg/mL)”.

With B2, the EC50 stood at 6 µg/mL.

For B3, the concentration for a half-maximal effect (EC50) is 2.8 µg/mL.

As to B4, the EC50 came to 1.5 µg/mL.

With B5, the EC50 stood at 1.5 µg/mL.

B6: the EC50 was 0.15 µg/mL.

As for B7, the EC50 was 0.28 µg/mL.

In the case of B8, the EC50 came out at 0.025 µg/mL.

Turning to B9, the EC50 stood at 0.06 µg/mL.

With B10, the EC50 was determined as 0.08 µg/mL.

With B11, the EC50 turned out to be 0.55 µg/mL.

In the case of B12, the EC50 is 0.6 µg/mL.

With B13, the EC50 was 0.15 µg/mL.

Take B14: the EC50 came out at 0.04 µg/mL.

With B15, the EC50 was 0.25 µg/mL.

On to B16, for which the concentration for a half-maximal effect (EC50) stood at 10 µg/mL.
